Experimental data: patent US20220331457A1

How the values were obtained:
[1] = target: human carbonic anhydrase IX (CAIX) (human) (UniProt Q16790); assay: competition ELISA on coated CAIX; competitor: biotinylated chimeric Girentuximab IgG1
[2] = target: human carbonic anhydrase IX (CAIX) (human) (UniProt Q16790); assay: SPR (Biacore T200), multicycle kinetics; purified antibody captured on Protein G chip, CAIX as analyte

Chimeric Girentuximab (VH0/Vκ0) IgG4 (S228P, L235E) (antibody)
relative IC50 (IC50 of the variant divided by IC50 of the Girentuximab chimeric IgG1 antibody on the same plate) [1]: < 2 fold
relative KD (KD of the variant divided by KD of the chimeric antibody on the same chip) [2]: < 2 fold
